Measured values reported in PMC9346500.

Target: full-length (FL) UBQLN2 (UniProt Q9UHD9)
Experiment: NMR titration

Kd: 3000 nM
Substance: ubiquitin (Ub) (from UniProt P0CG48 1-76) (natural protein; other documents disagree on this pair)
